# Results reported in article PMC12394548 (Nature Communications, 2025).
# Legend:
# Details in all cases: both partners purified
# [1] = molecular target: T1, valosin-containing protein (VCP)/p97 (UniProt P55072 1-806, terbium chelate (CoraFluor), non-site-selective labelling, DOL 0.33, in the TR-FRET assays only); assay: FRET or BRET; TR-FRET displacement assay: 10 nM BODIPY-VCPIP1 WT pre-incubated with 10 nM Tb-VCP, serial dilution of unlabelled VCPIP1 WT or p47; TR-FRET buffer, room temperature
# T1 construct: VCP/p97, full length; One molecule for the unlabelled protein (cryo-EM, DUB assay) and the Tb-labelled protein (TR-FRET); Hexamer seen by cryo-EM; also called Tb-VCP; terbium-chelate labeled VCP; source: co-expressed with VCPIP1 for cryo-EM data set 1 (ion exchange omitted)
# [2] = molecular target: T1, valosin-containing protein (VCP)/p97; assay: FRET or BRET; TR-FRET binding assay: Tb-VCP with a serial dilution of BODIPY-labelled VCPIP1 construct; 25 mM HEPES pH 7.4, 150 mM NaCl, 0.1% BSA, 0.05% Tween-20; 1 h at room temperature; apparent KD
# [3] = molecular target: T1, valosin-containing protein (VCP)/p97; assay: FRET or BRET; TR-FRET binding assay of BODIPY-VCPIP1 WT on Tb-VCP with 1 uM ADP; apparent KD
# [4] = molecular target: T1, valosin-containing protein (VCP)/p97; assay: FRET or BRET; TR-FRET binding assay of BODIPY-VCPIP1 WT on Tb-VCP with 1 uM AMP; apparent KD
# [5] = molecular target: T1, valosin-containing protein (VCP)/p97; assay: FRET or BRET; TR-FRET binding assay of BODIPY-VCPIP1 WT on Tb-VCP with 1 uM ATP; apparent KD
# [6] = molecular target: T1, valosin-containing protein (VCP)/p97; assay: FRET or BRET; TR-FRET binding assay of BODIPY-VCPIP1 WT on Tb-VCP with 1 uM ATPγS; apparent KD
# [7] = molecular target: T1, valosin-containing protein (VCP)/p97; assay: FRET or BRET; TR-FRET binding assay of BODIPY-VCPIP1 WT on Tb-VCP, buffer control (no nucleotide added); apparent KD; another protein batch than a3
# T1 sequence (P55072 whole entry): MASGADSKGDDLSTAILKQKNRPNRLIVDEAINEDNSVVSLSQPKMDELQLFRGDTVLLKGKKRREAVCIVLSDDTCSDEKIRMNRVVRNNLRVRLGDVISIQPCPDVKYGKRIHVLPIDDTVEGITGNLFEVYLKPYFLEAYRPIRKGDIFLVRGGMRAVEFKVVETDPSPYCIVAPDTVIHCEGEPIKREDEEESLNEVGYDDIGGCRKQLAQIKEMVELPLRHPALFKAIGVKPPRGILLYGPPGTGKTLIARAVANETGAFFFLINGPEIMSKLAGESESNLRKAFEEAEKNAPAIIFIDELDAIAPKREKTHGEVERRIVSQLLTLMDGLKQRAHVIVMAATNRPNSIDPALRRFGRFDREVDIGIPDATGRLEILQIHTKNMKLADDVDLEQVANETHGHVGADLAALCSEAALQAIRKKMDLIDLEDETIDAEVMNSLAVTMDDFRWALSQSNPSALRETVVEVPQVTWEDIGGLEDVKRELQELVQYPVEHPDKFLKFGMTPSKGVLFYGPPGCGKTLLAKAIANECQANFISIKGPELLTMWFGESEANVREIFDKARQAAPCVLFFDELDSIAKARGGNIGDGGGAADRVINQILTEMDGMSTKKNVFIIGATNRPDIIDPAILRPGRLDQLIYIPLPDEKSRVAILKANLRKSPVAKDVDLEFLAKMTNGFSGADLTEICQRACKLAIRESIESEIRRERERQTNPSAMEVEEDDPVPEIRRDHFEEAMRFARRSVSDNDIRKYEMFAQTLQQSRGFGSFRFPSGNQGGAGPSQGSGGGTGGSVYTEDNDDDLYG
Binder,IC50 [1] [nM],Kd [2] [nM],Kd [3] [nM],Kd [4] [nM],Kd [5] [nM],Kd [6] [nM],Kd [7] [nM]
"p47 (natural protein, p47 cloned into pNIC-Bio2 with an N-terminal His-6-TEV tag; printed residue numbers reach V366 (UBX domain); Used unlabelled in the displacement assay and in cryo-EM; also called adapter protein p47; source: E. coli LOBSTR, purified (Ni resin, ion exchange, SEC)) MAAERQEALREFVAVTGAEEDRARFFLESAGWDLQIALASFYEDGGDEDIVTISQATPSSVSRGTAPSDNRVTSFRDLIHDQDEDEEEEEGQRFYAGGSERSGQQIVGPPRKKSPNELVDDLFKGAKEHGAVAVERVTKSPGETSKPRPFAGGGYRLGAAPEEESAYVAGEKRQHSSQDVHVVLKLWKSGFSLDNGELRSYQDPSNAQFLESIRRGEVPAELRRLAHGGQVNLDMEDHRDEDFVKPKGAFKAFTGEGQKLGSTAPQVLSTSSPAQQAENEAKASSSILIDESEPTTNIQIRLADGGRLVQKFNHSHRISDIRLFIVDARPAMAATSFILMTTFPNKELADESQTLKEANLLNAVIVQRLT",20.4,,,,,,
"VCPIP1^ΔVCPID (aa Δ589-666) (enzyme, UniProt Q96JH7 1-1222, looked up, BODIPY, non-site-selective labelling, DOL 0.62, in the TR-FRET binding assay, VCPIP1 full length with the VCPID (aa 589-666) deleted; made from the Strep-VCPIP1 plasmid by PCR; also called VCPID domain truncation) MSQPPPPPPPLPPPPPPPEAPQTPSSLASAAASGGLLKRRDRRILSGSCPDPKCQARLFFPASGSVSIECTECGQRHEQQQLLGVEEVTDPDVVLHNLLRNALLGVTGAPKKNTELVKVMGLSNYHCKLLSPILARYGMDKQTGRAKLLRDMNQGELFDCALLGDRAFLIEPEHVNTVGYGKDRSGSLLYLHDTLEDIKRANKSQECLIPVHVDGDGHCLVHAVSRALVGRELFWHALRENLKQHFQQHLARYQALFHDFIDAAEWEDIINECDPLFVPPEGVPLGLRNIHIFGLANVLHRPIILLDSLSGMRSSGDYSATFLPGLIPAEKCTGKDGHLNKPICIAWSSSGRNHYIPLVGIKGAALPKLPMNLLPKAWGVPQDLIKKYIKLEEDGGCVIGGDRSLQDKYLLRLVAAMEEVFMDKHGIHPSLVADVHQYFYRRTGVIGVQPEEVTAAAKKAVMDNRLHKCLLCGALSELHVPPEWLAPGGKLYNLAKSTHGQLRTDKNYSFPLNNLVCSYDSVKDVLVPDYGMSNLTACNWCHGTSVRKVRGDGSIVYLDGDRTNSRSTGGKCGCGFKHFWDGKEYDNLNIDGAHAQRVGDVQGQESESQLPTKIILTGQKTKTLHKEELNMSKTERTIQQNITEQASVMQKRKTEKLKQEQKGQPRTVSPSTIRDGPSSAPATPTKAPYSPTTSKEKKIRITTNDGRQSMVTLKSSTTFFELQESIAREFNIPPYLQCIRYGFPPKELMPPQAGMEKEPVPLQHGDRITIEILKSKAEGGQSAAAHSAHTVKQEDIAVTGKLSSKELQEQAEKEMYSLCLLATLMGEDVWSYAKGLPHMFQQGGVFYSIMKKTMGMADGKHCTFPHLPGKTFVYNASEDRLELCVDAAGHFPIGPDVEDLVKEAVSQVRAEATTRSRESSPSHGLLKLGSGGVVKKKSEQLHNVTAFQGKGHSLGTASGNPHLDPRARETSVVRKHNTGTDFSNSSTKTEPSVFTASSSNSELIRIAPGVVTMRDGRQLDPDLVEAQRKKLQEMVSSIQASMDRHLRDQSTEQSPSDLPQRKTEVVSSSAKSGSLQTGLPESFPLTGGTENLNTETTDGCVADALGAAFATRSKAQRGNSVEELEEMDSQDAEMTNTTEPMDHS",,67.9,,,,,
"valosin contain protein p97/p47 interacting protein 1 (VCPIP1), wild type (enzyme, UniProt Q96JH7 1-1222, looked up, BODIPY, non-site-selective labelling, DOL 0.23, as the labelled partner of the TR-FRET assays; unlabelled in cryo-EM, as competitor in the displacement assay and in the DUB assay, AlphaFold model AF-Q96JH7-F1-v4 used for model building; One molecule for labelled and unlabelled protein; also called VCPIP1^WT; VCIP135; source: co-expressed with VCP for cryo-EM data set 1 (ion exchange omitted)) MSQPPPPPPPLPPPPPPPEAPQTPSSLASAAASGGLLKRRDRRILSGSCPDPKCQARLFFPASGSVSIECTECGQRHEQQQLLGVEEVTDPDVVLHNLLRNALLGVTGAPKKNTELVKVMGLSNYHCKLLSPILARYGMDKQTGRAKLLRDMNQGELFDCALLGDRAFLIEPEHVNTVGYGKDRSGSLLYLHDTLEDIKRANKSQECLIPVHVDGDGHCLVHAVSRALVGRELFWHALRENLKQHFQQHLARYQALFHDFIDAAEWEDIINECDPLFVPPEGVPLGLRNIHIFGLANVLHRPIILLDSLSGMRSSGDYSATFLPGLIPAEKCTGKDGHLNKPICIAWSSSGRNHYIPLVGIKGAALPKLPMNLLPKAWGVPQDLIKKYIKLEEDGGCVIGGDRSLQDKYLLRLVAAMEEVFMDKHGIHPSLVADVHQYFYRRTGVIGVQPEEVTAAAKKAVMDNRLHKCLLCGALSELHVPPEWLAPGGKLYNLAKSTHGQLRTDKNYSFPLNNLVCSYDSVKDVLVPDYGMSNLTACNWCHGTSVRKVRGDGSIVYLDGDRTNSRSTGGKCGCGFKHFWDGKEYDNLPEAFPITLEWGGRVVRETVYWFQYESDSSLNSNVYDVAMKLVTKHFPGEFGSEILVQKVVHTILHQTAKKNPDDYTPVNIDGAHAQRVGDVQGQESESQLPTKIILTGQKTKTLHKEELNMSKTERTIQQNITEQASVMQKRKTEKLKQEQKGQPRTVSPSTIRDGPSSAPATPTKAPYSPTTSKEKKIRITTNDGRQSMVTLKSSTTFFELQESIAREFNIPPYLQCIRYGFPPKELMPPQAGMEKEPVPLQHGDRITIEILKSKAEGGQSAAAHSAHTVKQEDIAVTGKLSSKELQEQAEKEMYSLCLLATLMGEDVWSYAKGLPHMFQQGGVFYSIMKKTMGMADGKHCTFPHLPGKTFVYNASEDRLELCVDAAGHFPIGPDVEDLVKEAVSQVRAEATTRSRESSPSHGLLKLGSGGVVKKKSEQLHNVTAFQGKGHSLGTASGNPHLDPRARETSVVRKHNTGTDFSNSSTKTEPSVFTASSSNSELIRIAPGVVTMRDGRQLDPDLVEAQRKKLQEMVSSIQASMDRHLRDQSTEQSPSDLPQRKTEVVSSSAKSGSLQTGLPESFPLTGGTENLNTETTDGCVADALGAAFATRSKAQRGNSVEELEEMDSQDAEMTNTTEPMDHS",74.5,79.5,67.6,16.1,68.3,63.9,16.5
